Where a SMILES comes first, the peptide text is derived from it. Where no end group is shown, it is not given here.

Series [1] in a line: CCK-8 cytotoxicity assay. The class given is cell-based. The conditions noted are these: C6 and BEAS-2B cells, PTP 0-200 µg/mL, CCK-8, absorbance 450 nm, BxPC-3, C6, BEAS-2B cells (Figure S1), read-out: cell viability. The method, then: CCK-8 assays were used to assess the potential cytotoxic effects of PTP on normal and tumor cell lines. Briefly, taking BxPC-3 cells as an example, the cells were seeded into 96-well plates at a density of 1 × 10^4 per well with RPMI-1640 medium and 10% FBS. After 24 h, the medium was replaced with 100 µL of fresh medium containing different concentrations of PTP (0–200 µg/mL) for another 24 h. Next, 10 µL of CCK-8 solution was added, and the cells were subsequently cultured for 1.5 h. Absorbance at 450 nm was measured using a Varioskan Flash multimode microplate reader (Thermo Fisher Scientific, Waltham, MA, USA). The cytocompatibility of PTP was also assessed in C6 and BEAS-2B cells using the same method.
On the technique in general: Tetrazolium assays rely on reduction of a dye to a coloured formazan, in cell work by metabolically active cells.

Series [2] has as its system BALB/c nude mice. In words: Preliminary toxicity study in vivo. As for the experimental part:
To assess the preliminary safety in vivo, five BALB/c nude mice were treated with PTP at a single dose (1 mg, 100 µL), and another five mice treated with saline were used as the control group. The body weight, physical activity, and death of each mouse were recorded during the following seven days. The major organs of the mice, including the heart, liver, spleen, lung, and kidneys, were harvested for histological examination.

The nature of series [3]: In vitro stability in FBS (RCP by ITLC). The class given is in vitro ADME, bovine. The conditions noted are these: 37 °C, 0-6 h. As for the experimental part: The [^99mTc]Tc-labeled PTP was characterized using an Agilent 1260 HPLC system (Agilent Technologies, Santa Clara, CA, USA) equipped with a UV-vis detector (λ = 220 nm) and a radioactive flow detector (BioScan, Poway, CA, USA). A SunFire C18 column (5 µm, 4.6 × 250 mm, Waters, Japan) was used at a 1 mL/min flow rate with the following gradient method: 0.1% trifluoroacetic acid in H2O and CH3CN (0–20 min, 15–45% CH3CN). The RCP of [^99mTc]Tc-HYNIC-PTP was determined by radio-HPLC and could also be rapidly analyzed by ITLC in a system consisting of silica gel 60 F254 TLC plates (Merck, Germany) and 50% acetonitrile as mobile phase. To assess the stability in vitro, the formed [^99mTc]Tc-HYNIC-PTP (500 μL, 1 mCi) was mixed with 500 μL of PBS (0.1 M, pH = 7.4) and 500 µL of cysteine solution (100-fold molar excess over the PTP) at room temperature, and 500 µL of FBS at 37 °C. The RCPs were tested by ITLC at different time intervals (0–6 h).

Series [4] concerns healthy ICR mice. In words: Pharmacokinetics in blood. As to conditions: for radioactivity in blood: i.v. 20 µCi. Type of series: in vivo. As for the experimental part: The pharmacokinetic profile of [^99mTc]Tc-HYNIC-PTP was investigated in healthy ICR mice. The mice were randomly divided into nine groups (n = 3), and each mouse was intravenously injected with [^99mTc]Tc-HYNIC-PTP at a dose of 20 µCi in a 200 µL solution. One hundred microliters of blood from each mouse was immediately collected and weighed at designated times (1, 2, 5, 15, 30, 60, 120, 240, and 360 min), and radioactivity was measured using a γ-counter (CAPINTEC, USA) to calculate the percent uptake of the injected dose per gram (%ID/g). In addition, the pharmacokinetic data were analyzed by DAS 2.0 (Shanghai, China) using a two-compartment model to calculate the half-life of [^99mTc]Tc-HYNIC-PTP in the blood.

The subject of series [5] is tumor-bearing mice (U87, C6, A549, 4T1, and BxPC-3). In words: SPECT imaging in vivo. The conditions noted are these: i.v. 200 µL of 10 mCi/mL, 0.5-4 h. As for the experimental part: The feasibility of [^99mTc]Tc-HYNIC-PTP as a SPECT probe for tumor imaging was examined using established subcutaneous tumor models. Briefly, [^99mTc]Tc-HYNIC-PTP solution (200 µL, [^99mTc]Tc = 10 mCi/mL, corresponding to 2 µg of HYNIC-PTP) was intravenously injected into tumor-bearing mice. SPECT images were acquired 0.5, 1, 2, and 4 h after injection using a SPECT imaging system equipped with a Xeleris 2.0 workstation and low-energy general-purpose collimators (Infinia, Denver, CO, USA). After SPECT imaging, the tumors and muscle tissues were excised to confirm plectin expression levels by immunohistochemistry. Briefly, excised specimens were fixed in formalin and embedded in paraffin. The sections (5 μm) were subjected to heat treatment in a citrate solution for antigen retrieval and blocking with 3% bovine serum albumin for 30 min. Then the sections were incubated with anti-plectin primary antibody (1:200) overnight at 4 °C. After incubation with secondary antibody (K5007, DAKO, Carpinteria, CA, USA) at room temperature for 50 min, the slides were treated with 1:100 DAB (K5007, DAKO, USA) and counterstained with hematoxylin. At least three sections of each specimen were chosen, and 5–10 high-power visual fields were randomly selected to calculate the positive area of staining. The average areas were then used to plot histograms.

Setting [6] is: blood, two-compartment model, DAS 2.0.

Turning to KTLLPTP [PTP], the viability at 24 h in series [1] is over 90%. The death of mice result in series [2] (single dose 1 mg in 100 µL, five mice, seven days, vs saline) is “None of the mice died”. Besides, in series [2] (single dose 1 mg in 100 µL, within seven days, vs saline group), the “body weight and physical activity” value was “no significant difference”. Also, the “H&E staining of main organs (heart, liver, lung, spleen, kidneys)” value in series [2] (single dose 1 mg, vs saline group (Figure S2)) is recorded as “no significant difference in tissue damage, necrotic areas, or abnormalities”.
Take `CC(C)C[C@H](NC(=O)[C@@H](NC(=O)[C@H](CCCCN)NC(=O)c1ccc(NN)nc1)[C@@H](C)O)C(=O)N[C@@H](CC(C)C)C(=O)N1CCC[C@H]1C(=O)N[C@H](C(=O)N1CCC[C@H]1C(=O)O)[C@@H](C)O` [[^99mTc]Tc-HYNIC-PTP, metal not drawn] (HELM PEPTIDE1{[NNc1ccc(C(=O)[*:2])cn1].K.T.L.L.P.T.P}$$$$V2.0): the “change of RCP in FBS” value in series [3] is on record as “no evident changes in RCPs”. Besides, the radioactivity in blood in series [4] (1 min post-injection, n = 3, γ-counter) is on record as 14.52 %ID/g; in series [4] (30 min post-injection, n = 3), 1.35 %ID/g; in series [4] (360 min post-injection, n = 3), “Less than 0.01 %ID/g”. For the same compound, the “clear-phase half-life (t1/2 beta)” value in series [4] (setting [6]) is on record as 9.17 min. In series [4] (setting [6]), the “distribution-phase half-life (t1/2 alpha)” value amounted to 0.88 min. For the same compound, the route of clearance entry in series [5] is on record as “predominantly cleared through the urinary system”.

As a reminder, the viability is a per cent measure of how many cells are alive, often set against a control.

Source of the values: PMC9146797, “[^99mTc]Tc-Labeled Plectin-Targeting Peptide as a Novel SPECT Probe for Tumor Imaging” (Pharmaceutics, 2022).
